Consider 1 molecule from patent US20170081409A1 (AGENUS, published 2017).

The test has as its target T1, human PD-1 expressed by activated (SEA-stimulated) primary human CD4+ T cells (human, UniProt Q15116 25-288).
T1 construct: whole, on cells; also called programmed cell death protein 1
In words: flow cytometry on SEA-stimulated human PBMC, CD4+ gate. How it is done: The anti-PD-1 antibodies AGEN2046w, AGEN2047w, and AGEN2034w were examined for binding to activated peripheral blood mononuclear cells (PBMCs) by flow cytometry. Cryopreserved human PBMCs prepared from unpurified buffy coats (Research Blood Components, Catalog number (Cat#) 002) or cryopreserved cynomolgus PBMCs (Worldwide Primates Inc., customer order) were plated at 10⁵ cells/well in RPMI1640 medium supplemented with Normocin™ (InvivoGen, Cat#ant-nr-1) and 10% heat-inactivated FBS (Gibco, Cat#16140063) in 96-well NUNCLON delta surface plates (NUNC™). The cells were cultured in the presence of 100 ng/ml of Staphylococcus Enterotoxin A (SEA; for human PBMCs) (Toxin Technologies, Cat#at101red) or Staphylococcus Enterotoxin B (SEB; for cynomolgus PBMCs) (Toxin Technology, Cat#bt202red) for 5 days at 37° C., 5% CO₂, and 97% humidity. […] The cells were washed twice with sample buffer and then resuspended in sample buffer and analyzed with a FACS Fortessa cytometer (Becton Dickinson). CD4+ T cells were gated and the mean fluorescence intensity (MFI) was recorded.
The binding of AGEN2034w to activated primary human T cells was measured again in a similar assay. […] Cells were analyzed with a FACS Fortessa cytometer (Becton Dickinson). CD4+ T cells were gated and the mean fluorescence intensity (MFI) of AGEN2034w-positive cells was determined.

T1 sequence (Q15116 25-288): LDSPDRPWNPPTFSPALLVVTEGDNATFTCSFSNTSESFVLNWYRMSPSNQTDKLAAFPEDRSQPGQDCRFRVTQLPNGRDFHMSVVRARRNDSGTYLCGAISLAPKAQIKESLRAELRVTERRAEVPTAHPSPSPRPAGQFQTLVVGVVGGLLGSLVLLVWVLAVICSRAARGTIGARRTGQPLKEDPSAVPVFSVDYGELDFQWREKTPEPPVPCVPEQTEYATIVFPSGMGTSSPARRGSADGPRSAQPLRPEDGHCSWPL

B1: AGEN2046w (antibody, human IgG1, kappa, V domains shown)
VH: QVQLVESGGGVVQPGRSLRLSCAASGFTFSSYGMHWVRQAPGKGLEWVAVIWYDGSNKYYADSVKGRFTISRDNSKNTLYLQMNSLRAEDTAVYYCASNVDYWGQGTLVTVSS
VL: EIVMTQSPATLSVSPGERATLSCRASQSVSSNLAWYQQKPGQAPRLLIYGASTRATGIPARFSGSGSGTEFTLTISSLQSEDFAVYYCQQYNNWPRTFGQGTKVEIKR
B1: the binding result was “binds”.
